pKd: −log10 of the molar value.
Legend:
[1] = tested on: M402 (synthetic (M160-nuc with G46D and 3'-5' exo reactivated)); assay: cleavage_in_vitro; conditions: relative to Pfu polymerase, 37 C, 4 mM MgCl2
[2] = tested on: M401 (synthetic (M160-nuc A339E)); assay: cleavage_in_vitro; conditions: relative to Pfu polymerase, 37 C, 4 mM MgCl2
[3] = tested on: M402 (synthetic (M160-nuc with G46D and 3'-5' exo reactivated)); conditions: vs M160-nuc
[4] = tested on: M401 (synthetic (M160-nuc A339E)); conditions: vs M160-nuc
[5] = tested on: M403 (synthetic (M160-nuc, both nucleases inactive)); conditions: vs M160-nuc
M403 (synthetic (M160-nuc, both nucleases inactive)), sequence (chain, as listed by the source): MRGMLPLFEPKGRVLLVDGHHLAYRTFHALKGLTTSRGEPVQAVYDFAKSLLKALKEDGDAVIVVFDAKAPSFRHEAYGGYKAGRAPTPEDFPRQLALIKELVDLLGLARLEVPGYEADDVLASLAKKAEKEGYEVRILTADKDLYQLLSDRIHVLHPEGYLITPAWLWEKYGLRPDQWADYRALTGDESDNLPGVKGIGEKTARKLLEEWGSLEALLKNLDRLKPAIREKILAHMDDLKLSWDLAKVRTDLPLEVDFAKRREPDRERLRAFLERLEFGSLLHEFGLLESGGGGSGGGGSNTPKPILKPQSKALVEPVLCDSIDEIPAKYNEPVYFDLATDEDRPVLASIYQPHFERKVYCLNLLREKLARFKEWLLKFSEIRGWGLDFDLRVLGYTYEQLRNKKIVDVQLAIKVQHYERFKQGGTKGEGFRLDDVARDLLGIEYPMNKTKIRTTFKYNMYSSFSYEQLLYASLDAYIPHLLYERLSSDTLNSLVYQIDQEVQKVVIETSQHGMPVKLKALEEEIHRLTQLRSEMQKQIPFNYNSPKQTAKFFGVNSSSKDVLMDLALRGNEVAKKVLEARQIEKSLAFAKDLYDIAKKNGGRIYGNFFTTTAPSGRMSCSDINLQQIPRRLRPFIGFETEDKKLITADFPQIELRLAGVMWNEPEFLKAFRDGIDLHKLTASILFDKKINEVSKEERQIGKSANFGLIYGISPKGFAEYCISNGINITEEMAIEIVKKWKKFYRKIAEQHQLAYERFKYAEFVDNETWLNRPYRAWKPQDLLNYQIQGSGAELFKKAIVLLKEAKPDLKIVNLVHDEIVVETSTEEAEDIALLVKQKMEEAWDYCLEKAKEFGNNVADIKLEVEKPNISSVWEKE

[6] = tested on: M160-nuc (synthetic (shuffled viral polymerase fused to Taq 5'-3' nuclease domain)); conditions: reference
[7] = tested on: M502 (synthetic (M160-nuc mutant W777C D781A D622N Q627N)); assay: EMSA; conditions: 20 mM Tris pH 8.8, 10 mM NaCl, 5 mM MgCl2, 37 C; at assay sensitivity limit
M502 (synthetic (M160-nuc mutant W777C D781A D622N Q627N)), sequence (chain, as listed by the source W777C D781A D622N Q627N): as the sequence (chain, as listed by the source) above, with D46G, D622N, Q627N, W777C, D781A counted along it

[8] = tested on: M160 (synthetic (shuffled viral Family A DNA polymerase)); assay: EMSA; conditions: 20 mM Tris pH 8.8, 10 mM NaCl, 5 mM MgCl2, 37 C; lacks 5' nuclease domain
[9] = tested on: M160-nuc (synthetic (shuffled viral polymerase fused to Taq 5'-3' nuclease domain)); assay: EMSA; conditions: 20 mM Tris pH 8.8, 10 mM NaCl, 5 mM MgCl2, 37 C
[10] = 50 C, substrate taken from general RT assay
[11] = substrate taken from general polymerase assay

M402 (synthetic (M160-nuc with G46D and 3'-5' exo reactivated)), sequence (chain, as listed by the source G46D): as the sequence (chain, as listed by the source) above, with A339E counted along it
M401 (synthetic (M160-nuc A339E)), sequence (chain, as listed by the source A339E): as the sequence (chain, as listed by the source) above, with D46G, A339E counted along it

59-mer single-stranded oligonucleotide
relative enzyme activity (relative ssExo activity) [1]: 0.89 | relative enzyme activity (relative ssExo activity) [2]: 0.76

poly(A)/oligo(dT)20
relative enzyme activity (relative RT activity) [3, 10]: 0.98 | relative enzyme activity (relative RT activity) [4, 10]: 1.02 | relative enzyme activity (relative RT activity) [5, 10]: 1.03 | relative enzyme activity (relative RT activity) ([6]; 50 C): 1

primed M13mp18 DNA
relative enzyme activity (relative pol activity) [3, 11]: 1.05 | relative enzyme activity (relative pol activity) [4, 11]: 0.91 | relative enzyme activity (relative pol activity) [5, 11]: 0.72 | relative enzyme activity (relative pol activity) [6, 11]: 1

primed-template DNA (Yamagami et al. 2014)
pKd [7]: > 8.21 | pKd [8]: 6.02 | pKd [9]: 7.10

From US20210171580
